These results are taken from PMC10696467 (The Journal of Biological Chemistry, 2023).

The Kd is the equilibrium constant for the complex coming apart. Read a high Kd as a looser complex.

B1: speckle-type POZ protein (SPOP) WT, residues 28-359 (domain or fragment)
chain: KVVKFSYMWTINNFSFCREEMGEVIKSSTFSSGANDKLKWCLRVNPKGLDEESKDYLSLYLLLVSCPKSEVRAKFKFSILNAKGEETKAMESQRAYRFVQGKDWGFKKFIRRDFLLDEANGLLPDDKLTLFCEVSVVQDSVNISGQNTMNMVKVPECRLADELGGLWENSRFTDCCLCVAGQEFQAHKAILAARSPVFSAMFEHEMEESKKNRVEINDVEPEVFKEMMCFIYTGKAPNLDKMADDLLAAADKYALERLKVMCEDALCSNLSVENAAEILILADLHSADQLKTQAVDFINYHASDVLETSGWKSMVVSHPHLVAEAYRSLASA
B3: SPOP R354H, residues 28-359 (domain or fragment)
chain: KVVKFSYMWTINNFSFCREEMGEVIKSSTFSSGANDKLKWCLRVNPKGLDEESKDYLSLYLLLVSCPKSEVRAKFKFSILNAKGEETKAMESQRAYRFVQGKDWGFKKFIRRDFLLDEANGLLPDDKLTLFCEVSVVQDSVNISGQNTMNMVKVPECRLADELGGLWENSRFTDCCLCVAGQEFQAHKAILAARSPVFSAMFEHEMEESKKNRVEINDVEPEVFKEMMCFIYTGKAPNLDKMADDLLAAADKYALERLKVMCEDALCSNLSVENAAEILILADLHSADQLKTQAVDFINYHASDVLETSGWKSMVVSHPHLVAEAYHSLASA

Data set [1] concerns the molecule itself. Kind of data set: composite-gradient multiangle light scattering.
Data set [2] deals with B3. Briefly: fluorescence polarisation. A general note: Fluorescence polarisation rises when a labelled molecule tumbles more slowly, as on binding a larger partner.
The target of data set [3] is SPOP R221C, residues 28-359 (UniProt O43791 28-359, R221C). Briefly: fluorescence polarisation.
Data set [4] deals with B1. Kind of data set: fluorescence polarisation.
For data set [5], the target named is SPOP mutBACK (Y353E), residues 28-359 (UniProt O43791 28-359, Y353E). Briefly: fluorescence polarisation.

The molecule B1 yielded an equilibrium dissociation constant (Kd) in data set [1] of 2.7 µM.

B2: C-terminal intrinsically disordered region of DAXX (cDAXX), fluorescently labeled (domain or fragment)
chain: SPMSSLQISNEKNLEPGKQISRSSGEQQNKGRIVSPSLLSEEPLAPSSIDAESNGEQPEELTLEEESPVSQLFELEIEALPLDTPSSVETDISSSRKQSEEPFTTVLENGAGMVSSTSFNGGVSPHNWGDSGPPCKKSRKEKKQTGSGPLGNSYVERQRSVHEKNGKKICTLPSPPSPLASLAPVADSSTRVDSPSHGLVTSSLCIPSPARLSQTPHSQPPRPGTCKTSVATQCDPEEIIVLSDSD
modifications: fluorescently labeled (fluorescently tagged cDAXX construct; the labeling methods give Rhodamine Red, N-terminal labeling, for cDAXX)
Consider B2, for which the figures for the Kd in data set [2], in data set [3] and in data set [4] were 3 µM, 3.2 µM and 1.2 µM, respectively.

Molecule B3 had a Kd in data set [1] of 26.9 µM.

B4: fPuc peptide (fluorescently labeled SPOP-binding motif from the substrate Puckered) (peptide)
peptide: ENLACDEVTSTTSSSST
HELM: PEPTIDE1{[O=C1OC2(c3ccc(O)cc3Oc3cc(O)ccc32)c2ccc(C(=O)[*:2])cc21].E.N.L.A.C.D.E.V.T.S.T.T.S.S.S.S.T.[am]}$$$$V2.0
SMILES: CC(C)C[C@H](NC(=O)[C@H](CC(N)=O)NC(=O)[C@H](CCC(=O)O)NC(=O)c1ccc2c(c1)C(=O)OC21c2ccc(O)cc2Oc2cc(O)ccc21)C(=O)N[C@@H](C)C(=O)N[C@@H](CS)C(=O)N[C@@H](CC(=O)O)C(=O)N[C@@H](CCC(=O)O)C(=O)N[C@H](C(=O)N[C@H](C(=O)N[C@@H](CO)C(=O)N[C@H](C(=O)N[C@H](C(=O)N[C@@H](CO)C(=O)N[C@@H](CO)C(=O)N[C@@H](CO)C(=O)N[C@@H](CO)C(=O)N[C@H](C(N)=O)[C@@H](C)O)[C@@H](C)O)[C@@H](C)O)[C@@H](C)O)C(C)C
For the molecule B4, the Kd is 5.1 µM in data set [2], 5.9 µM in data set [3], 4.3 µM in data set [5] and 9.8 µM in data set [4].
